Test results as given in the supplement of paper PMC10567573.

B1: FCHSD1 (parent)
chain: LEAAEVILEHAHRGEQTTSQVSWE
B2: PBXIP1 (parent)
chain: LQQLRARLQGLEADCVRGPDGVCL

Variants of: B1
Assay: protein stability index of a GFP-peptide fusion (GPS, HEK-293T) (PSI 1-6); higher = more stable
Conditions: c terminus: a fixed tail appended
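Further: lentivirally expressed fusions sorted by FACS into six bins by GFP to DsRed ratio, PSI derived from sequencing read proportions per bin multiplied by bin number.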

Variant | protein stability index
A11Q | 4.11
A11N | 4.18
A11R | 4.71
A11Y | 3.47
A11S | 4.12
A11L | 4.77
A11G | 4.14
A11C | 4.14
A11H | 4.05
A11I | 3.33
A11D | 4.97
A11F | 3.27
A11W | 3.23
A11M | 4.46
A11T | 3.04
A11E | 4.69
A11V | 4.54
A11P | 5.38
L1F | 3.33
L1W | 3.35
L1Y | 5
L1Q | 4.92
L1N | 4.61
L1M | 4.58
L1S | 4

Variant | protein stability index
L1K | 4.67
L1I | 4.12
L1H | 4.88
L1D | 4.42
L1V | 4.7
L1E | 4.55
L1C | 4.8
L1P | 5.11
L1T | 5.34
L1R | 4.52
G14Q | 4.63
G14L | 3.76
G14H | 4.28
G14P | 4.29
G14N | 4.53
G14V | 3.47
G14R | 4.19
G14M | 3.45
G14S | 4.46
G14Y | 3.64
G14E | 4.53
G14F | 2.88
G14C | 4.2
G14D | 4.68
G14T | 4.21

Variant | protein stability index
G14A | 4.55
G14I | 3.85
E5Q | 4.2
E5H | 3.6
E5T | 4.38
E5I | 2.18
E5F | 2.29
E5K | 3.48
E5Y | 2.01
E5S | 4.1
E5R | 4.22
E5N | 3.63
E5C | 2.82
E5A | 2.84
E5M | 2.4
E5L | 1.11
E5W | 1.53
E5D | 4.31
E5V | 2.83
S19E | 4.75
S19A | 2.6
S19D | 5.11
S19C | 3.3
S19F | 2.97
L8I | 4.46

Variant | protein stability index
L8M | 4.46
L8P | 5.65
L8T | 5.09
L8A | 4.96
L8K | 4.98
L8V | 4.83
L8D | 5.35
L8C | 4.93
L8G | 5.23
L8Q | 5.5
L8R | 4.92
L8F | 4
L8W | 4.31
L8S | 5.37
L8H | 4.74
L8Y | 4.42
L8E | 5.09
E15N | 4.7
E15R | 3.87
E15H | 3.87
E15K | 3.46
E15L | 2.81
E15W | 2.2
E15D | 4.22
E15A | 3.79

Variant | protein stability index
E15F | 2.31
E15V | 2.6
E15I | 3.31
E15Q | 3.5
T18G | 4.38
T18L | 4.11
T18Q | 3.21
T18P | 4.33
T18M | 3.59
T18C | 4.45
T18D | 4.74
T18I | 3.65
T18E | 4.2
T18W | 2.7
T18F | 2.98
T18R | 3.93
T18H | 4.09
T18N | 3.69
T18V | 3.88
T18K | 4.54
T18Y | 3.21
T18A | 3.72
T18S | 4.41
E9V | 2.5
E9C | 3.04

Variant | protein stability index
E9L | 2.52
E9Y | 2.33
E9K | 4.19
E9I | 1.86
E9D | 4.33
E9N | 3.8
E9R | 3.39
E9T | 3.62
E9H | 4.18
E9W | 2.05
E9F | 2.54
E9S | 4.4
E9G | 3.87
E9Q | 3.45
E9M | 2.66
H10P | 4.41
H10C | 3.63
H10G | 3.87
H10I | 2.88
H10Y | 3.15
H10Q | 4.88
H10V | 3.92
H10E | 5.19
H10S | 4.41
H10N | 3.78

Variant | protein stability index
H10M | 3.15
H10L | 4.34
H10F | 3.05
H10T | 4.65
H10K | 4.48
Q16F | 3.53
Q16E | 4.88
Q16P | 4.05
Q16K | 4.24
Q16S | 4.4
Q16T | 4.33
Q16L | 2.92
Q16N | 3.97
Q16Y | 3.69
Q16A | 4.41
Q16I | 3.98
Q16G | 4.42
Q16H | 4.05
Q16D | 4.9
Q16R | 4.14
Q16M | 3.57
Q16C | 2.73
Q16V | 4.13
E2D | 4.31
E2T | 3.6

Variant | protein stability index
E2N | 4.42
E2C | 1.85
E2M | 3.79
E2A | 3.94
E2S | 3.7
E2P | 4.32
E2F | 2.21
E2H | 4.72
E2Q | 4.41
E2I | 2.5
E2R | 3.84
E2K | 3.93
A3E | 4.74
A3R | 4.41
A3G | 4.53
A3H | 3.86
A3K | 4.57
A3T | 4.49
A3S | 5.35
A3N | 4.43
A3L | 3.71
A3D | 5.14
A3Y | 3.6
A3C | 4.92
A3Q | 4.79

Variant | protein stability index
A3M | 3.65
A3V | 2.89
A3I | 2.88
A4P | 5.19
A4Y | 2.48
A4C | 4.59
A4M | 2.35
A4R | 3.59
A4K | 4.24
A4F | 2.35
A4N | 4.52
A4H | 4.46
A4L | 2.59
A4V | 3.15
A4G | 5.06
A4E | 5.11
A4I | 2.56
A4D | 3.59
A4T | 3.82
T17H | 3.99
T17W | 3.54
T17P | 4.14
T17G | 4.84
T17M | 3.85
T17C | 4.51

Variant | protein stability index
T17Q | 4.51
T17L | 2.78
T17A | 4.2
T17E | 5.06
T17S | 4.77
T17N | 4.39
T17V | 4.37
T17Y | 3.32
I7V | 4.75
I7G | 5.1
I7C | 4.28
I7S | 4.92
I7P | 4.89
I7M | 4.84
I7N | 5.08
I7D | 5.62
I7Q | 4.55
I7L | 4.99
I7Y | 4.7
I7F | 4.27
I7E | 4.64
I7A | 4.71
I7R | 5.16
I7H | 5.15
I7W | 4.24

Variant | protein stability index
R13V | 4.93
R13P | 4.9
R13S | 4.24
R13K | 4.1
R13Q | 4.41
R13D | 4.67
R13H | 4.6
R13M | 4.27
R13I | 4.11
R13N | 4.63
R13W | 3.27
R13A | 4.58
R13L | 4.13
R13G | 5.25
R13C | 3.5
R13Y | 3.44
R13T | 4.58
H12P | 4.43
H12I | 4.25
H12M | 3.79
H12F | 2.87
H12S | 4.77
H12E | 4.92
H12D | 4.04
H12K | 4.07

Variant | protein stability index
H12Y | 4.09
H12N | 4.55
H12A | 4.23
H12T | 4.11
V6Y | 4.17
V6A | 4.9
V6I | 4.03
V6F | 3.56
V6P | 5.66
V6D | 5.52
V6N | 5.66
V6G | 5.35
V6E | 5.31
V6R | 4.48
V6K | 4.16
V6M | 3.85
V6Q | 5.27
V6H | 4.7
V6L | 3.95
V6S | 4.24

Variants of: B2
Assay: as above
Conditions: c terminus: a fixed tail appended

Variant | protein stability index
V22C | 1.84
V22S | 3.23
V22K | 2.39
V22F | 1.34
V22A | 2.03
V22Y | 1.52
V22I | 1.96
V22L | 1.46
V22R | 3.41
V22M | 2.13
V22T | 2.57
V22Q | 2.83
V22G | 1.78
L24Y | 2.34
L24H | 2.97
L24I | 1.94
L24P | 2.79
L24V | 1.79
L24T | 1.74
L24R | 2.65

Variant | protein stability index
L24N | 3.04
L24Q | 3.1
L24D | 3.08
L24S | 2.89
L24W | 2.15
C23N | 1.65
C23I | 2.78
C23Y | 2.29
C23L | 2.48
C23P | 2.52
C23W | 3.01
C23K | 2.03
C23E | 2.98
C23V | 1.74
C23M | 2.23
C23Q | 2.39
C23H | 2.66
C23A | 2.2
C23S | 1.96
